Measured values: article PMC2526197 (The Journal of Experimental Medicine, 2008)
Each block holds one binder with its values, some of them ahead of it.

Columns and labels:
Test in all cases: SPR
CXCL1 = molecular target: T1, CXCL1 (human, UniProt P09341 35-107)
T1 sequence (looked up): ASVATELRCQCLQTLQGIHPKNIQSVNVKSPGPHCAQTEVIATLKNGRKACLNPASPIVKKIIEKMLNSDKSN

MIP-2 = molecular target: T2, MIP-2 (mouse, UniProt P10889 28-100)
T2 sequence (looked up): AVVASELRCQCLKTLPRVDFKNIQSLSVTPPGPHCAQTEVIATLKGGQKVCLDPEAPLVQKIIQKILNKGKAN

KC = molecular target: T3, KC (mouse, UniProt P12850 25-96)
T3 sequence (looked up): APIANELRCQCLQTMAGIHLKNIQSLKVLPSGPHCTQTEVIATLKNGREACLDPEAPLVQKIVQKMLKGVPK

Evasin-1 = molecular target: T4, Evasin-1 (Rhipicephalus sanguineus, UniProt P0C8E7 21-114)
T4 sequence (looked up): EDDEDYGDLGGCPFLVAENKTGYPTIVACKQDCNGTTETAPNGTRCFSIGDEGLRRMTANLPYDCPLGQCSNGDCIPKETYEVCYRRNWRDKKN

Kd (CXCL1): 0.34 nM
koff (CXCL1): 0.00142 ± 0.36 s⁻¹
kon (CXCL1): 3.95e+06 ± 4.23 M⁻¹ s⁻¹
Kd (MIP-2): 0.4 nM
koff (MIP-2): 0.00033 ± 0.11 s⁻¹
kon (MIP-2): 790000 ± 0.9 M⁻¹ s⁻¹
Kd (KC): 2.25 nM
koff (KC): 0.00144 ± 0.35 s⁻¹
kon (KC): 640000 ± 0.58 M⁻¹ s⁻¹
B1: Evasin-3 (HEK) (natural protein, Rhipicephalus sanguineus, UniProt P0C8E8 21-86, looked up)
chain: LVSTIESRTSGDGADNFDVVSCNKNCTSGQNECPEGCFCGLLGQNKKGHCYKIIGNLSGEPPVVRR
modifications: also: extensively glycosylated

Kd (CXCL1): 0.85 nM
koff (CXCL1): 0.00222 ± 0.49 s⁻¹
kon (CXCL1): 2.61e+06 ± 0.69 M⁻¹ s⁻¹
Kd (MIP-2): 0.64 nM
koff (MIP-2): 0.00065 ± 0.25 s⁻¹
kon (MIP-2): 1.02e+06 ± 0.56 M⁻¹ s⁻¹
Kd (KC): 5.78 nM
koff (KC): 0.00185 ± 0.43 s⁻¹
kon (KC): 320000 ± 0.17 M⁻¹ s⁻¹
B2: Evasin-3 (E. coli) (natural protein, Rhipicephalus sanguineus, UniProt P0C8E8 21-86, looked up)
chain: B1 chain

Kd (Evasin-1): 0.12 nM
koff (Evasin-1): 0.00243 ± 0.61 s⁻¹
kon (Evasin-1): 1.38e+07 ± 3.54 M⁻¹ s⁻¹
B3: CCL3 (ligand, human, UniProt P10147 24-92, looked up)
chain: SLAADTPTACCFSYTSRQIPQNFIADYFETSSQCSKPGVIFLTKRSRQVCADPSEEWVQKYVSDLELSA

Kd (Evasin-1): 0.08 nM
koff (Evasin-1): 0.00118 ± 1.07 s⁻¹
kon (Evasin-1): 1.56e+07 ± 16 M⁻¹ s⁻¹
B4: murine MIP-1α (ligand, mouse, UniProt P10855 24-92, looked up)
chain: APYGADTPTACCFSYSRKIPRQFIVDYFETSSLCSQPGVIFLTKRNRQICADSKETWVQEYITDLELNA

Kd (Evasin-1): 0.51 nM
koff (Evasin-1): 0.0022 ± 0.18 s⁻¹
kon (Evasin-1): 4.29e+06 ± 2.58 M⁻¹ s⁻¹
B5: CCL4 (ligand, human, UniProt P13236 24-92, looked up)
chain: APMGSDPPTACCFSYTARKLPRNFVVDYYETSSLCSQPAVVFQTKRSKQVCADPSESWVQEYVYDLELN

Kd (Evasin-1): 0.15 nM
koff (Evasin-1): 0.00058 ± 0.12 s⁻¹
kon (Evasin-1): 3.84e+06 ± 1.42 M⁻¹ s⁻¹
B6: murine MIP-1β (ligand, mouse, UniProt P14097 24-92, looked up)
chain: APMGSDPPTSCCFSYTSRQLHRSFVMDYYETSSLCSKPAVVFLTKRGRQICANPSEPWVTEYMSDLELN

Kd (Evasin-1): 0.05 nM
koff (Evasin-1): 0.00067 ± 0.13 s⁻¹
kon (Evasin-1): 1.32e+07 ± 2.9 M⁻¹ s⁻¹
B7: CCL3L1 (ligand, human, UniProt P16619 24-93, looked up)
chain: APLAADTPTACCFSYTSRQIPQNFIADYFETSSQCSKPSVIFLTKRGRQVCADPSEEWVQKYVSDLELSA
